Measured values taken from patent US9023767B2, “γ-Secretase substrates and methods of use” (Memorial Sloan-Kettering Cancer Center, priority 2009, dated 2015).
Where a SMILES comes first, the peptide text is derived from it. [ ]: non-standard residue; d: D form. The star is where a group is joined. Biotin = O=C1N[C@H]2[C@H](CS[C@H]2CCCCC(=O)*)N1; Bpa = N[C@@H](Cc1ccc(C(=O)c2ccccc2)cc1)C(=O)O; Sta = CC(C)C[C@H](N)[C@@H](O)CC(=O)O; Isovaleryl = CC(C)CC(=O)*

Tests used:
γ-secretase [1] = target: T1, γ-secretase (Homo sapiens (Human), UniProt P49768+Q92542); assay: Photoaffinity labeling of γ-secretase in HeLa membrane by Aβ17-23BPA20-biotin; format: binding; settings: probe 300 nM
Experimental: FIG. 4. […] Various concentrations of inhibitor were incubated with APP substrate (S4) or Notch peptide substrate containing the C-terminal biotinylated transmembrane domain of Notch1 and HeLa cell membrane in the presence of 0.25% CHAPSO. Aβ40 was detected by G2-10 antibody. The cleaved Notch product was detected by Val1744 antibody that specifically recognizes the cleaved product between Gly1743 and Val1744. Activities are expressed as percentage relative to reading that was produced in DMSO control. […] Various concentrations of S4 substrate were incubated with HeLa membrane in fixed concentrations of inhibitor as indicated. The double reciprocal velocity (1/v) and substrate concentrations (1/S) are plotted to determine the type of inhibition. […] Assays were conducted as described in FIG. 4A. […] The labeled samples were solubilized with RIPA buffer. Biotinylated proteins were captured with streptavidin-agarose and probed by immunoblotting using antibodies against biotin, PS1-CTF, PS1-NTF, Nicastrin, PEN-2 and APH-1a. HeLa cell membrane proteins were directly loaded onto lanes indicated by an arrow in the PEN-2 and APH-1a blots as positive controls. […] Upper panel: PS1-NTF; Lower panel: PS1-CTF.
The labeled proteins were eluted with 2×SDS sample buffer and analyzed with Western blotting using antibodies against the components of γ-secretase complex. Protein concentration was determined with the Dc protein assay kit (Bio-Rad)
After the photolyzed membranes were solubilized, biotinylated proteins were captured, eluted and analyzed by western blotting with antibodies against biotin, PS1, nicastrin, PEN-2 and APH-1.

γ-secretase [2] = target: T2, γ-secretase (Homo sapiens (Human), UniProt P49768); assay: HTRF γ-secretase assay with Sb4 substrate; format: biochemical; settings: for pilot screen result: 10 μM, 1536-well
Excerpt: We set out to transfer the assay conditions obtained with the ECL method to an HTRF detection based format (FIG. 10b). The HTRF detection mixture consisted of mouse G2-10 antibody for recognition of the C-terminal epitope of the cleaved product, a Europium-labeled anti-mouse antibody (commonly, an antibody is conjugated with a cryptate ligand that forms a three dimensional coordination cage structure surrounding a lanthanide such as Eu^3+), along with Streptavidin conjugated to a trimeric form of the fluorescent protein allophycocyanin referred to as XL665. Cleavage of Sb4 substrate allows G2-10 mouse antibody to bind to the Aβ40-processed site on the cleaved substrate. The Steptavidin-XL665 conjugate binds directly with the biotin moiety on the N-terminal end of the Sb4 derived product. The anti-mouse Europium antibody targets to the G2-10 antibody, bringing all of these entities into close proximity. The Europium and XL665 reagents are a compatible pair of donor-acceptor fluorophores, and excitation of Europium at 337 nm results in fluorescence energy resonance transfer (FRET) to XL665 which fluoresces at 665 nm (FIG. 10b).
Human γ-secretase was prepared from HeLa cell membranes as described previously (Li et al., 2000). Briefly, HeLa cell pellet was resuspended in 1×MES buffer (50 mM MES, pH 6.0, 150 mM KCl, 5 mM CaCl2, 5 mM MgCl2) and treated with ‘complete’ protease inhibitor (Boehringer Mannheim). The resuspended pellet was mechanically homogenized by passing the cells through the French Press (Spectronic Instruments), and subsequently spun down at 800 g to remove cell debris and nuclei. Next, the supernatants were spun at 100,000 g in order to pellet the membranes. The pelleted membranes were resuspended in 1×MES buffer to approximately 12 mg/ml. This entire procedure was performed at 4° C. HeLa membranes were solubilized using 1% CHAPSO detergent in 1×MES buffer with protease inhibitors. After incubating for 1 hr at 4° C., the membrane was spun down at 100,000 g and the supernatants were collected and stored at −70° C. The collected fraction is defined as solubilized γ-secretase.
HTRF conditions were initially optimized in a 384-well format using a final volume of 20 μl. The high control for this assay was defined as the observed γ-secretase activity in the presence of 1% DMSO (v/v) and the low control as the activity observed when including 100 nM final concentration of Compound E (v/v). First, we determined a tolerable DMSO concentration that would not interfere with γ-secretase activity. Even with 3% DMSO (v/v) present in the assay mixture, there was virtually no effect on the γ-secretase activity (FIG. 11a), which was critical as delivery of library screening compounds required a final concentration of 2% DMSO (v/v) in the γ-secretase reaction. Next, we titrated the HTRF mixture components in an effort to minimize reagent costs for use in high throughput screening. […] Additionally, we varied Europium conjugated anti-mouse antibody and determined that 1 nM of this reagent in the HTRF mixture was sufficient for our assay conditions even though the signal continued to increase with higher concentrations of the anti-mouse antibody (FIG. 11c).
We have further miniaturized the HTRF assay from the established 384-well format to a 1536-well platform enabling more efficient screening of large chemical libraries. […] Based on these optimization experiments, we set our final assay conditions at 0.3 nM G2-10, 1 nM anti-mouse antibody, 15 nM Streptavidin-XL665, and proceeded with the assay at 10 μl final volume (5 μl γ-secretase mix+5 μl HTRF mix) in the 1536-well format for screening.
The pilot assay was performed in duplicate on two separate days to account for any day-to-day variability. […]

γ-secretase [3] = target: T1, γ-secretase; assay: In vitro γ-secretase assay, HeLa membrane, APP-derived substrates, ECL detection; format: biochemical; settings: for γ-secretase activity %: cleavage of the substrate at the Aβ40 site, HeLa membrane, G2-10 antibody; for effect on γ-secretase processing of the S3 substrate (in trans): peptide 0.1, 1 and 10 μM, S3 0.5, 1 and 2 μM; for inhibition of X40 production / suppression of Aβ production: 1 μM βCTF substrate
Experimental: The recombinant proteins were incubated with γ-secretase (40 μg/ml) in the presence or absence of 1 μM γ-secretase inhibitor L-685,458 (CAS [292632-98-5], shown below). The reaction mixture contains 0.25% 3[(3-cholamidopropyl) dimethylammonio]-2-hydroxypropanesulfonic acid (CHAPSO), 0.1 μg/μl BSA, protease inhibitor, 50 mM PIPES, pH 7.0, 5 mM MgCl2, 5 mM CaCl2 and 150 mM KCl. The reaction was incubated for 2.5 hr at 37° C. and stopped by adding RIPA buffer (150 mM NaCl, 1.0% NP-40, 0.5% sodium
[drawing 1] deoxycholate, 0.1% SDS, 50 mM Tris HCl, pH 8.0). The products were detected with various antibody combinations as previously described (Lai et al., 2003; J. Biol. Chem., 278: 22475-22481; Li et al., 2000, Proc. Natl. Acad. Sci. USA, 97: 6138-6143; Yin et al., 2007, J. Biol. Chem., 282:23639-23644) using electrochemiluminescence (ECL). The amount of product was determined using synthetic peptide or recombinant standards. The Km and Vmax were determined from the Michaelis-Menten equation Michaelis-Menten Kinetics (ν=Vm[S]/([…]; ν: initial rate; Vm: maximum velocity; Km: the Michaelis-Menten constant, S: substrate). P-values were calculated from Student t-test. 7.1.5 Cell-Based Aβ Production Assay and Western Blot

γ-secretase [4] = target: T2, γ-secretase; assay: In vitro γ-secretase assay, solubilized γ-secretase, ECL; format: biochemical; settings: substrate 1 μM, background with Compound E
Excerpt: The γ-secretase cleaved Aβ product derived from C100Flag substrate was detected by a pair of antibodies (biotinylated 4G8 and ruthenylated G2-10*) while Sb4 cleaved product was detected by ruthenylated G2-10* alone (FIG. 10a) and quantified using electrochemiluminescence (ECL) technology.
An in vitro assay was based on the one previously reported by Li et al. (2000), except we utilized Sb4 substrate that eliminated the need for biotinylated antibody. […] All assays incorporate ruthenylated G2-10* antibody to detect 40-site cleavage of APP or recombinant Sb4 substrate and quantitated activity by measuring ECL.

Molecule: CC(C)C[C@H](N)C(=O)N[C@H](C(=O)N[C@@H](Cc1ccccc1)C(=O)N[C@@H](Cc1ccc(C(=O)c2ccccc2)cc1)C(=O)N[C@@H](C)C(=O)N[C@@H](CCC(=O)O)C(=O)N[C@@H](CC(=O)O)C(=O)N[C@@H](CCCCNC(=O)CCCC[C@@H]1SC[C@@H]2NC(=O)N[C@@H]21)C(=O)O)C(C)C [Aβ17-23BPA^20-biotin] (H-LVF[Bpa]AEDK(Biotin)-OH; N-terminus and C-terminus assumed)
- photolabeled bands, PS1 (γ-secretase [1]): co-migrated with PS1-CTF and PS1-NTF
- photolabeling of PEN-2 and APH1a (γ-secretase [1]): not PEN-2 or APH1a
- photolabeling of nicastrin (γ-secretase [1]): labels nicastrin

Molecule: N.N.[Cl][Pt][Cl] [Cisplatin]
- pilot screen result (γ-secretase [2]): active compound

Molecule: CC(C)CC(=O)N[C@H](C(=O)N[C@H](C(=O)N[C@@H](CC(C)C)[C@@H](O)CC(=O)N[C@@H](C)C(=O)N[C@@H](CC(C)C)[C@@H](O)CC(=O)O)C(C)C)C(C)C [Pepstatin A] (Isovaleryl-VV[Sta]A[Sta]-OH)
- pilot screen result (γ-secretase [2]): active compound
- IC50 (γ-secretase [2]; dose response, read-out: IC50, HTRF assay): 6.43 µM

Molecule: O=C(O)CCCC[C@@H]1SC[C@@H]2NC(=O)N[C@@H]21 [biotin]
- pilot screen result (γ-secretase [2]): active hit

Molecule: AviTag-KGAIIGLMVGGVVIATVIVITLVMLKKK [S1]
- γ-secretase activity % (γ-secretase [3]): 100 ± 4.2%

Molecule: AviTag-LVFFAEDVGSNKGAIIGLMVGGVVIATVIVITLVMLKKK [S2]
- γ-secretase activity % (γ-secretase [3]): None

Molecule: Aβ1-7: Aβ1-16 derived synthetic peptide (DAEFRHD; Amyloid-beta protein 42; UniProt P05067 672-678, looked up, fragment)
- inhibition of γ-secretase activity, APP processing (γ-secretase [3]): no inhibition
- effect on γ-secretase processing of the S3 substrate (in trans) (γ-secretase [3]): no difference

Molecule: Aβ8-16: Aβ1-16 derived synthetic peptide (SGYEVHHQK; Amyloid-beta protein 42; UniProt P05067 679-687, looked up, fragment)
- effect on γ-secretase processing of the S3 substrate (in trans) (γ-secretase [3]): no difference

Molecule: C100Flag: truncated APP protein used in previously published γ-secretase assays
- ratio of signal to background (γ-secretase [4]): 7 to 1

Molecule: P3-42: synthetic P3 peptide Aβ17-42 (LVFFAEDVGSNKGAIIGLMVGGVVIA; Amyloid-beta protein 42; UniProt P05067 688-713, looked up, fragment)
- inhibition of Aβ40 production (γ-secretase [3]; 1, 3, 10 and 30 nM, βCTF or βCTFΔ substrate): did not inhibit

Molecule: αCTF: recombinant α-secretase cleaved APP C-terminal fragment
- inhibition of X40 production (γ-secretase [3]; 0.25 μM): 24%
- suppression of Aβ production (γ-secretase [3]; 0.25 μM): 66%
- inhibition of X40 production (γ-secretase [3]; 0.5 μM): 32%
- suppression of Aβ production (γ-secretase [3]; 0.5 μM): 71%
- inhibition of X40 production (γ-secretase [3]; 1.0 μM): 60%
- suppression of Aβ production (γ-secretase [3]; 1.0 μM): 82%

Molecule: βCTF: recombinant β-secretase cleaved APP C-terminal fragment
- Vmax (γ-secretase [3]; Aβ40 product, 6E10/G2-10, ECL): 16 ± 1 min⁻¹ µg⁻¹
- Km (γ-secretase [3]; Aβ40 product, 6E10/G2-10, ECL, read-out: apparent Km): 0.47 ± 0.09 µM
- rate of γ-secretase hydrolysis relative to αCTF-FLAG (γ-secretase [3]; X40 production, 4G8/G2-10 antibodies): 12 fold

B1: S3: AviTag substrate from Aβ17 with C-terminal tail of APP and FLAG (protein, listed as Homo sapiens)
chain: GLNDIFEAQKIEWHELVFFAEDVGSNKGAIIGLMVGGVVIATVIVITLVMLKKKQYTSIHHGVVEVDAAVTPEERHLSKMQQNGYENPTYKFFEQMQNDYKDDDDK
- γ-secretase activity % (γ-secretase [3]): None

B2: Sb4: biotinylated AviTag-APP695(620-695) recombinant substrate (protein, listed as Homo sapiens)
chain: GLNDIFEAQKIEWHEVGSNKGAIIGLMVGGVVIATVIVITLVMLKKKQYTSIHHGVVEVDAAVTPEERHLSKMQQNGYENPTYKFFEQMQN
modifications: biotinylated
notes: biotinylated AviTag-APP695(620-695) recombinant substrate
- ratio of signal to background (γ-secretase [4]): 93 to 1
